In data set [1] the test system is Escherichia coli. The data set can be described thus: Antimicrobial activity Escherichia coli DH5alpha harboring bacteriophage T4 plasmid alpha omega by agar macrodilution method. The format is functional.
Data set [2] deals with Escherichia coli. The data set is described as follows: Antimicrobial activity Escherichia coli DH5alpha expressing metallo-beta-lactamase VIM-11 by agar macrodilution method. The format is functional.
The test system of data set [3] is Escherichia coli. The data set is described as follows: Antimicrobial activity Escherichia coli DH5alpha expressing beta lactamase VIM-2 by agar macrodilution method. Format: functional.
The test system of data set [4] is Pseudomonas aeruginosa. The data set can be described thus: Ratio of Kcat to Km for Pseudomonas aeruginosa COL-1 metallo-beta lactamase VIM-2 over Kcat to Km for Pseudomonas aeruginosa M5109 metallo-beta-lactamase VIM-11.
In data set [5] the test system is Escherichia coli. The data set can be described thus: Activity at Escherichia coli DH5alpha metallo-beta-lactamase VIM-11 assessed as compound hydrolysis per mg of total periplasmic protein by spectrometry.
The target of data set [6] is Metallo-beta-lactamase (Escherichia coli) (UniProt Q5U7L7). The data set is described as follows: Activity at Escherichia coli DH5alpha metallo-beta-lactamase VIM-2 assessed as compound hydrolysis per mg of total periplasmic protein by spectrometry.
Data set [7] concerns CC(=O)OCC1=C(C(=O)O)N2C(=O)[C@@H](NC(=O)Cc3cccs3)[C@H]2SC1. The data set can be described thus: (§1) Activity at Pseudomonas aeruginosa COL-1 metallo-beta lactamase VIM-2 by spectrometry.
Data set [8] concerns CC(C)(O/N=C(\C(=O)N[C@@H]1C(=O)N2C(C(=O)[O-])=C(C[n+]3ccccc3)CS[C@H]12)c1csc(N)n1)C(=O)O. Described as §1.
Data set [9] relates to CC1(C)S[C@@H]2[C@H](NC(=O)[C@H](N)c3ccccc3)C(=O)N2[C@H]1C(=O)O. The description is as §1.
In data set [10] the test system is CO/N=C(\C(=O)N[C@@H]1C(=O)N2C(C(=O)O)=C(COC(C)=O)CS[C@H]12)c1csc(N)n1. The description is as §1.
The test system of data set [11] is CO/N=C(\C(=O)N[C@@H]1C(=O)N2C(C(=O)O)=C(COC(N)=O)CS[C@H]12)c1ccco1. The description is as §1.
The test system of data set [12] is CO/N=C(\C(=O)N[C@@H]1C(=O)N2C(C(=O)[O-])=C(C[n+]3cccc4c3CCC4)CS[C@H]12)c1csc(N)n1. The data set is described as §1.
The subject of data set [13] is CO[C@@]1(NC(=O)Cc2cccs2)C(=O)N2C(C(=O)O)=C(COC(N)=O)CS[C@@H]21. The description is as §1.
Data set [14] concerns C[C@@H](O)[C@H]1C(=O)N2C(C(=O)O)=C(S[C@@H]3CN[C@H](C(=O)N(C)C)C3)[C@H](C)[C@H]12. Described as §1.
In data set [15] the test system is O=C(Cc1cccs1)N[C@@H]1C(=O)N2C(C(=O)O)=C(/C=C/c3ccc([N+](=O)[O-])cc3[N+](=O)[O-])CS[C@H]12. Described as §1.
Data set [16] concerns CC(=O)OCC1=C(C(=O)O)N2C(=O)[C@@H](NC(=O)Cc3cccs3)[C@H]2SC1. The data set is described as follows: (§2) Ratio of Kcat to Km for Pseudomonas aeruginosa COL-1 metallo-beta lactamase VIM-2.
Data set [17] relates to CC(C)(O/N=C(\C(=O)N[C@@H]1C(=O)N2C(C(=O)[O-])=C(C[n+]3ccccc3)CS[C@H]12)c1csc(N)n1)C(=O)O. The description is as §2.
Data set [18] has as its system CC1(C)S[C@@H]2[C@H](NC(=O)[C@H](N)c3ccccc3)C(=O)N2[C@H]1C(=O)O. Described as §2.
The test system of data set [19] is CO/N=C(\C(=O)N[C@@H]1C(=O)N2C(C(=O)O)=C(COC(C)=O)CS[C@H]12)c1csc(N)n1. The description is as §2.
In data set [20] the test system is CO/N=C(\C(=O)N[C@@H]1C(=O)N2C(C(=O)O)=C(COC(N)=O)CS[C@H]12)c1ccco1. The data set is described as §2.
Data set [21] deals with CO[C@@]1(NC(=O)Cc2cccs2)C(=O)N2C(C(=O)O)=C(COC(N)=O)CS[C@@H]21. The data set is described as §2.
For data set [22], the system named is C[C@@H](O)[C@H]1C(=O)N2C(C(=O)O)=C(S[C@@H]3CN[C@H](C(=O)N(C)C)C3)[C@H](C)[C@H]12. The data set is described as §2.
For data set [23], the system named is O=C(Cc1cccs1)N[C@@H]1C(=O)N2C(C(=O)O)=C(/C=C/c3ccc([N+](=O)[O-])cc3[N+](=O)[O-])CS[C@H]12. The data set is described as §2.
The subject of data set [24] is CC(=O)OCC1=C(C(=O)O)N2C(=O)[C@@H](NC(=O)Cc3cccs3)[C@H]2SC1. The data set is described as follows: (§3) Activity at Pseudomonas aeruginosa M5109 metallo-beta-lactamase VIM-11 by spectrometry.
Data set [25] has as its system CC(C)(O/N=C(\C(=O)N[C@@H]1C(=O)N2C(C(=O)[O-])=C(C[n+]3ccccc3)CS[C@H]12)c1csc(N)n1)C(=O)O. Described as §3.
Data set [26] has as its system CC1(C)S[C@@H]2[C@H](NC(=O)[C@H](N)c3ccccc3)C(=O)N2[C@H]1C(=O)O. The description is as §3.
Data set [27] concerns CO/N=C(\C(=O)N[C@@H]1C(=O)N2C(C(=O)O)=C(COC(C)=O)CS[C@H]12)c1csc(N)n1. The description is as §3.
In data set [28] the test system is CO/N=C(\C(=O)N[C@@H]1C(=O)N2C(C(=O)O)=C(COC(N)=O)CS[C@H]12)c1ccco1. The description is as §3.
In data set [29] the test system is CO/N=C(\C(=O)N[C@@H]1C(=O)N2C(C(=O)[O-])=C(C[n+]3cccc4c3CCC4)CS[C@H]12)c1csc(N)n1. Described as §3.
Data set [30] has as its system CO[C@@]1(NC(=O)Cc2cccs2)C(=O)N2C(C(=O)O)=C(COC(N)=O)CS[C@@H]21. Described as §3.
Data set [31] relates to C[C@@H](O)[C@H]1C(=O)N2C(C(=O)O)=C(S[C@@H]3CN[C@H](C(=O)N(C)C)C3)[C@H](C)[C@H]12. The data set is described as §3.
For data set [32], the system named is O=C(Cc1cccs1)N[C@@H]1C(=O)N2C(C(=O)O)=C(/C=C/c3ccc([N+](=O)[O-])cc3[N+](=O)[O-])CS[C@H]12. The description is as §3.
The subject of data set [33] is CC(=O)OCC1=C(C(=O)O)N2C(=O)[C@@H](NC(=O)Cc3cccs3)[C@H]2SC1. The data set is described as follows: (§4) Ratio of Kcat to Km for Pseudomonas aeruginosa M5109 metallo-beta-lactamase VIM-11.
The test system of data set [34] is CC(C)(O/N=C(\C(=O)N[C@@H]1C(=O)N2C(C(=O)[O-])=C(C[n+]3ccccc3)CS[C@H]12)c1csc(N)n1)C(=O)O. The description is as §4.
For data set [35], the system named is CC1(C)S[C@@H]2[C@H](NC(=O)[C@H](N)c3ccccc3)C(=O)N2[C@H]1C(=O)O. The description is as §4.
In data set [36] the test system is CO/N=C(\C(=O)N[C@@H]1C(=O)N2C(C(=O)O)=C(COC(C)=O)CS[C@H]12)c1csc(N)n1. The data set is described as §4.
For data set [37], the system named is CO/N=C(\C(=O)N[C@@H]1C(=O)N2C(C(=O)O)=C(COC(N)=O)CS[C@H]12)c1ccco1. Described as §4.
Data set [38] has as its system CO/N=C(\C(=O)N[C@@H]1C(=O)N2C(C(=O)[O-])=C(C[n+]3cccc4c3CCC4)CS[C@H]12)c1csc(N)n1. The data set is described as §4.
Data set [39] relates to CO[C@@]1(NC(=O)Cc2cccs2)C(=O)N2C(C(=O)O)=C(COC(N)=O)CS[C@@H]21. Described as §4.
The subject of data set [40] is C[C@@H](O)[C@H]1C(=O)N2C(C(=O)O)=C(S[C@@H]3CN[C@H](C(=O)N(C)C)C3)[C@H](C)[C@H]12. The description is as §4.
The test system of data set [41] is O=C(Cc1cccs1)N[C@@H]1C(=O)N2C(C(=O)O)=C(/C=C/c3ccc([N+](=O)[O-])cc3[N+](=O)[O-])CS[C@H]12. The data set is described as §4.

Experimental findings from ChEMBL document CHEMBL1255351, “Biochemical characterization of metallo-beta-lactamase VIM-11 from a Pseudomonas aeruginosa clinical strain” (2008) are described below.

In brackets after ≈: the same amount, converted by molar mass.

In the case of `CC(=O)OCC1=C(C(=O)O)N2C(=O)[C@@H](NC(=O)Cc3cccs3)[C@H]2SC1` [CEPHALOTHIN], the values for the MIC in data set [1], in data set [2] and in [3] were 4 µg/mL (≈ 10.1 µM), 64 µg/mL (≈ 161 µM) and 64 µg/mL (≈ 161 µM), respectively. For the same compound, the kcat/Km ratio in data set [4] came out at 1.12. Besides, the Activity in data set [5] amounted to 5.4 µmol; in [6] it was 141 µmol.
A word on the Km: it is the substrate concentration at which the rate is half of its maximum. The term kcat denotes the maximal rate divided by the concentration of active sites. In the case of “Metallo-beta-lactamase VIM-2 (Pseudomonas aeruginosa) (from UniProt D1MEN9)”, the Km is 6.2 µM in data set [7]; 88.2 µM in data set [8]; 136 µM in data set [9]; 13.4 µM in [10]; 5.5 µM in data set [11]; 171 µM in [12]. The Km in data set [14] came to 24.5 µM; in [15] it was 13.8 µM. Further, the kcat in [7] was 96.4 s⁻¹; in data set [10] it was 61 s⁻¹; in data set [11], 30.5 s⁻¹; in data set [12], 48.1 s⁻¹; in data set [13] it was 10 s⁻¹; in [14], 3.5 s⁻¹. The turnover number (kcat) in data set [15] was 206 s⁻¹. Moreover, the kcat/Km was 1.6 ×10⁶ /M/s in [16]; 3.2 ×10⁶ /M/s in data set [17]; 2.2 ×10⁶ /M/s in [18]; 4.6 ×10⁶ /M/s in data set [19]; 5.5 ×10⁶ /M/s in [20]; 1 ×10⁶ /M/s in [21]. Further, the kcat/Km is 1.4 ×10⁶ /M/s in data set [22] and 1.5 ×10⁶ /M/s in data set [23].
As for `C[C@H]1[C@H](NC(=O)/C(=N\OC(C)(C)C(=O)O)c2csc(N)n2)C(=O)N1S(=O)(=O)O` [AZTREONAM], the MIC in [2] and in [3] was 0.5 µg/mL (≈ 1.15 µM) each time.
Regarding `CO/N=C(\C(=O)N[C@@H]1C(=O)N2C(C(=O)O)=C(COC(C)=O)CS[C@H]12)c1csc(N)n1` [CEFOTAXIME], the MIC in [1] worked out at 0.03 µg/mL (≈ 0.0659 µM); in [2], 4 µg/mL (≈ 8.78 µM); in data set [3], 8 µg/mL (≈ 17.6 µM). For the same compound, in data set [4], the kcat/Km ratio was 0.78.
For the compound “Metallo-beta-lactamase VIM-11 (Pseudomonas aeruginosa) (from UniProt C7DTR7)”, the Michaelis constant (Km) in data set [24] was 4.5 µM; in data set [25], 110 µM; in data set [26] it was 109 µM; in [27], 11.4 µM; in data set [28], 5.5 µM; in data set [29] it was 183 µM. In addition, the Km in data set [30] was determined as 7.4 µM; in [31], 22.7 µM; in [32], 8.2 µM. The kcat came out at 81 s⁻¹ in data set [24]; 14 s⁻¹ in data set [25]; 190 s⁻¹ in [26]; 41.3 s⁻¹ in data set [27]; 27 s⁻¹ in data set [28]; 102 s⁻¹ in [29]. The results for the kcat in data set [30], in data set [31] and in [32] were 6.4 s⁻¹, 3.2 s⁻¹ and 129 s⁻¹, respectively. Moreover, the kcat/Km in [33] stood at 1.8 ×10⁶ /M/s; in data set [34] it was 1.3 ×10⁶ /M/s; in data set [35], 1.8 ×10⁶ /M/s; in [36], 3.6 ×10⁶ /M/s; in data set [37] it was 4.9 ×10⁶ /M/s; in [38], 5.6 ×10⁶ /M/s. Moreover, the kcat/Km in data set [39] came out at 8.6 ×10⁶ /M/s; in data set [40], 1.4 ×10⁶ /M/s; in data set [41], 1.6 ×10⁶ /M/s.
`CC1(C)S[C@@H]2[C@H](NC(=O)[C@H](N)c3ccccc3)C(=O)N2[C@H]1C(=O)O` [AMPICILLIN]: the results for the MIC in [1], in data set [2] and in [3] were 8 µg/mL (≈ 22.9 µM), 64 µg/mL (≈ 183 µM) and 256 µg/mL (≈ 733 µM), respectively. In addition, the kcat/Km ratio in data set [4] turned out to be 0.81.
In the case of `CC(C)(O/N=C(\C(=O)N[C@@H]1C(=O)N2C(C(=O)[O-])=C(C[n+]3ccccc3)CS[C@H]12)c1csc(N)n1)C(=O)O` [CEFTAZIDIME], the MIC in data set [1] came to 0.125 µg/mL (≈ 0.229 µM); in data set [2], 8 µg/mL (≈ 14.6 µM); in [3] it was 8 µg/mL (≈ 14.6 µM). Besides, the kcat/Km ratio in data set [4] was found to be 4.06. The Activity in data set [5] is 0.9 µmol; in [6], 5.5 µmol.
